Here are results for 1 substance from patent publication US20160054331A1.

This test deals with Hexa-His tag amidated peptide HHHHHH-CONH2. Nature of the test: peptides on microspheres, PE anti-mouse IgG, Luminex.

Take “anti-C-term His tag antibody 3D5 (Invitrogen, Carlsbad, Calif.)”: the binding remaining after amidation of the C terminus (percent) is less than 15%.
